Measured values reported in patent publication US7186459B2, “Liposome coated with polyhydroxyalkanoate and production method thereof” (priority 2001, dated 2007).

Test system: PHA synthesizing enzyme
Test: Activity of purified PHA synthesizing enzyme (released CoA coloured with 5,5'-dithiobis-(2-nitrobenzoic acid), absorbance at 412 nm)
Format: biochemical, Pseudomonas cichorii YN2
Conditions: for Activity: 1 U = amount of enzyme releasing 1 μmol CoA per minute, substrate 3-hydroxyoctanoyl CoA, 30° C.; for Specific Activity: protein by Micro BCA
Text: A various kinds of reported methods may be used for measuring activity of the PHA synthesizing enzyme, and for example, the activity may be measured by the following method in which as a measurement principle, CoA released in the process through which 3-hydroxyacyl CoA is polymerized under the catalytic action of the PHA synthesizing enzyme to form PHA is colored with 5,5′-dithiobis-(2-nitrobenzoic acid) to carry out measurements. Reagent 1: bovine serum albumin (manufactured by Sigma Co., Ltd.) is dissolved in a 0.1 M Tris hydrochloric buffer (pH 8.0) in the concentration of 3.0 mg/ml, Reagent 2: 3-hydroxyoctanoyl CoA is dissolved in a 0.1 M Tris hydrochloric buffer (pH 8.0) in the concentration of 3.0 mM, Reagent 3: trichloroacetic acid is dissolved in a 0.1 M Tris hydrochloric buffer (pH 8.0) in the concentration of 10 mg/ml, and Reagent 4: 5,5′-dithiobis-(2-nitrobenzoic acid) is dissolved in a 0.1 M Tris hydrochloric buffer (pH 8.0) in the concentration of 2.0 mM. First reaction (PHA synthesis reaction): 100 μl of Reagent 1 is added in 100 μl of sample (enzyme) solution and mixed together, and is pre-incubated at 30° C. for a minute. 100 μl of Reagent 2 is added thereto and mixed together, and is incubated at 30° C. for 1 to 30 minutes, followed by adding thereto Reagent 3 to stop the reaction. Second reaction (reaction of coloring free CoA): the first reaction solution of which reaction has been stopped is subjected to centrifugation (15,000×g, 10 minutes), and 500 μl of Reagent 4 is added in 500 μl of supernatant liquid of this solution, and is incubated at 30° C. for 10 minutes, followed by measuring an absorbance at 412 nm. Calculation of enzyme activity: the amount of enzyme for releasing 1 μmol of CoA per minute is defined as one unit (U).
The activity of each purified enzyme was measured by the aforesaid method. Also, the concentrations of proteins in the sample were measured by the Micro BCA protein quantification reagent kit (Pierce Chemical Co., Ltd.).

Row | Molecule | Activity [U/mL] | Specific Activity [U/mg Protein]
1 | YN2-C2: Purified PHA synthase derived from Pseudomonas cichorii YN2, from plasmid pYN2-C2 (SEQ ID NO: 4), 61.5 kDa (protein, Pseudomonas cichorii YN2 ; FERM BP-7375) MRDKPARESLPTPAKFINAQSAITGLRGRDLVSTLRSVAAHGLRHPVHTARHALKLGGQLGRVLLGDTLHPTNPQDRRFDDPAWSLNPFYRRSLQAYLSWQKQVKSWIDESNMSPDDRARAHFAFALLNDAVSPSNSLLNPLAIKEIFNSGGNSLVRGIGHLVDDLLHNDGLPRQVTRHAFEVGKTVATTTGAVVFRNELLELIQYKPMSEKQYSKPLLVVPPQINKYYIFDLSPHNSFVQFALKNGLQTFVISWRNPDVRHREWGLSTYVEAVEEAMNVCRAITGAREVNLMGACAGGLTIAALQGHLQAKRQLRRVSSATYLVSLLDSQLDSPATLFADEQTLEAAKRRSYQKGVLEGRDMAKVFAWMRPNDLIWSYFVNNYLMGKEPPAFDILYWNNDNTRLPAALHGDLLDFFKHNPLSHPGGLEVCGTPIDLQKVTVDSFSVAGINDHITPWDAVYRSTLLLGGERRFVLANSGHVQSILNPPNNPKANYLEGAKLSSDPRAWYYDAKPVDGSWWTQWLGWIQERSGAQKETHMALGNQNYPPMEAAPGTYVRVR | 1.5 | 3.6
2 | YN2-C1: Purified PHA synthase derived from Pseudomonas cichorii YN2, from plasmid pYN2-C1 (SEQ ID NO: 2), 60.8 kDa (protein, Pseudomonas cichorii YN2 ; FERM BP-7375) MSNKSNDELKYQASENTLGLNPVVGLRGKDLLASARMVLRQAIKQPVHSVKHVAHFGLELKNVLLGKSGLQPTSDDRRFADPAWSQNPLYKRYLQTYLAWRKELHDWIDESNLAPKDVARGHFVINLMTEAMAPTNTAANPAAVKRFFETGGKSLLDGLSHLAKDLVHNGGMPSQVNMGAFEVGKSLGVTEGAVVFRNDVLELIQYKPTTEQVYERPLLVVPPQINKFYVFDLSPDKSLARFCLRNNVQTFIVSWRNPTKEQREWGLSTYIEALKEAVDVVTAITGSKDVNMLGACSGGITCTALLGHYAAIGENKVNALTLLVSVLDTTLDSDVALFVNEQTLEAAKRHSYQAGVLEGRDMAKVFAWMRPNDLIWNYWVNNYLLGNEPPVFDILFWNNDTTRLPAAFHGDLIELFKNNPLIRPNALEVCGTPIDLKQVTADIFSLAGTNDHITPWKSCYKSAQLFGGNVEFVLSSSGHIQSILNPPGNPKSRYMTSTEVAENADEWQANATKHTDSWWLHWQAWQAQRSGELKKSPTKLGSKAYPAGEAAPGTYVHER | 2.1 | 4.1
